The labels stand for the following.
B1: Cold shock protein CspB, P41016 (parent)
chain: MQRGKVKWFNNEKGYGFIEVEGGSDVFVHFTAIQGEGFKTLEEGQEVSFEIVQGNRGPQAANVVKL

Values joined by “and” are separate entries in the source; they are usually repeats but may differ in a detail not shown here. Equal values may be shown once.

The variants in this data set derive from B1. The settings on record: Bacillus caldolyticus; pH 7; 25 °C; GdnHCl; Fluorescence; sodium cacodylate 100 mM; reversible: yes; structure 1C9O; whole UniProt chain shown.

Turning to E50W L66C, the “ddG of mutation (higher = less stable)” value was 1.7 kcal/mol and 4.4 kcal/mol; the denaturant m value is 1.97 kcal/mol/M and 1.54 kcal/mol/M; the “denaturant midpoint (higher = more stable)” value (from here on “denaturant midpoint”) was 1.64 M and 1.68 M; the unfolding free energy was 3.23 kcal/mol and 2.58 kcal/mol.

On to E50W, for which the “ddG of mutation (higher = less stable)” value is -0.3 kcal/mol, the denaturant m value was found to be 1.69 kcal/mol/M, the “denaturant midpoint” value amounted to 2.18 M and the unfolding free energy stood at 3.7 kcal/mol.

With E50W S24C, the “ddG of mutation (higher = less stable)” value was 0.8 kcal/mol and 0.3 kcal/mol; the denaturant m value is 1.64 kcal/mol/M and 1.43 kcal/mol/M; the “denaturant midpoint” value is 2.09 M and 2.05 M; the unfolding free energy is 3.44 kcal/mol and 2.92 kcal/mol.

F38W: the “ddG of mutation (higher = less stable)” value is -0.7 kcal/mol, the denaturant m value came out at 1.75 kcal/mol/M, the “denaturant midpoint” value is 2.18 M and the unfolding free energy came out at 3.8 kcal/mol.

Regarding F38W L66C, the denaturant m value is 1.97 kcal/mol/M and 1.9 kcal/mol/M and 1.54 kcal/mol/M; the “denaturant midpoint” value is 2.14 M and 2.11 M and 1.83 M; the unfolding free energy is 4.21 kcal/mol and 4.02 kcal/mol and 2.82 kcal/mol.

The values are drawn from FireProtDB (doi:10.1016/j.jmb.2003.11.050).
